Values belong to the binder of their own block, whether it stands above or below them. Starred links: 1 amine or outer side, 2 acyl side, 3 side chain; linkers in the order of their positions; H or OH if unused. Non-standard residues stand in square brackets, D forms with d. Groups on a side chain read outwards from the residue. No end group written: not given here. *: point of attachment. C20 diacid = O=C(O)CCCCCCCCCCCCCCCCCCC(=O)*; C18 diacid = O=C(O)CCCCCCCCCCCCCCCCC(=O)*; γGlu = O=C(O)[C@H](CCC(=O)[*:2])N[*:1]; αMeF = C[C@](N)(Cc1ccccc1)C(=O)O; AEEA = NCCOCCOCC(=O)O; Aib = CC(C)(N)C(=O)O
Tests used:
[1] = molecular target: human GLP-1 receptor (hGLP-1R) (human, UniProt P43220 24-463); assay: cell-based or functional assay
[2] = molecular target: human glucagon receptor (hGCGR) (human, UniProt P47871 26-477); assay: cell-based or functional assay
human glucagon receptor (hGCGR), sequence (P47871 26-477): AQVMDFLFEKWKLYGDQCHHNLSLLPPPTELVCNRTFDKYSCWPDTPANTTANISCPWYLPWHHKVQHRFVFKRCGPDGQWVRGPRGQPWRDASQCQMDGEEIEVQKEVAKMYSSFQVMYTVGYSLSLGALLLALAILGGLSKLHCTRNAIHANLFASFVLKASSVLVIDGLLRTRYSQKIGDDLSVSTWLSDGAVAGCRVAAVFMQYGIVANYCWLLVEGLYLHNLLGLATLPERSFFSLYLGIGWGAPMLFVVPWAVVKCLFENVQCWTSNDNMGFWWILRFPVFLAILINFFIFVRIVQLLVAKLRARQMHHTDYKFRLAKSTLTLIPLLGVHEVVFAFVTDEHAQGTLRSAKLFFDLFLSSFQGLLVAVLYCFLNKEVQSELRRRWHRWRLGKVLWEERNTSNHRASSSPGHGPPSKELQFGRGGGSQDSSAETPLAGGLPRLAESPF

B1: Peptide 484 (peptide)
peptide: H[Aib]QGTFTSDVSK[αMeF]LDTK([AEEA-AEEA-γGlu-C20 diacid])RAQDFVQWLL[Aib]E-OH
modifications: N-terminus assumed
SMILES: CC(C)C[C@H](NC(=O)[C@H](Cc1c[nH]c2ccccc12)NC(=O)[C@H](CCC(N)=O)NC(=O)[C@@H](NC(=O)[C@H](Cc1ccccc1)NC(=O)[C@H](CC(=O)O)NC(=O)[C@H](CCC(N)=O)NC(=O)[C@H](C)NC(=O)[C@H](CCCNC(=N)N)NC(=O)[C@H](CCCCNC(=O)COCCOCCNC(=O)COCCOCCNC(=O)CC[C@H](NC(=O)CCCCCCCCCCCCCCCCCCC(=O)O)C(=O)O)NC(=O)[C@@H](NC(=O)[C@H](CC(=O)O)NC(=O)[C@H](CC(C)C)NC(=O)[C@](C)(Cc1ccccc1)NC(=O)[C@H](CCCCN)NC(=O)[C@H](CO)NC(=O)[C@@H](NC(=O)[C@H](CC(=O)O)NC(=O)[C@H](CO)NC(=O)[C@@H](NC(=O)[C@H](Cc1ccccc1)NC(=O)[C@@H](NC(=O)CNC(=O)[C@H](CCC(N)=O)NC(=O)C(C)(C)NC(=O)[C@@H](N)Cc1c[nH]cn1)[C@@H](C)O)[C@@H](C)O)C(C)C)[C@@H](C)O)C(C)C)C(=O)N[C@@H](CC(C)C)C(=O)NC(C)(C)C(=O)N[C@@H](CCC(=O)O)C(=O)O
hGLP-1R EC50 (pM) [1]: 339 pM
hGluc-R EC50 (pM) [2]: 169 pM

B2: Peptide 479 (peptide)
peptide: H[Aib]QGTFTSDVSK[αMeF]LDTK([AEEA-AEEA-γGlu-C20 diacid])RAQDFVRWLLE[Aib]K-NH2
modifications: N-terminus assumed
SMILES: CC(C)C[C@H](NC(=O)[C@H](Cc1c[nH]c2ccccc12)NC(=O)[C@H](CCCNC(=N)N)NC(=O)[C@@H](NC(=O)[C@H](Cc1ccccc1)NC(=O)[C@H](CC(=O)O)NC(=O)[C@H](CCC(N)=O)NC(=O)[C@H](C)NC(=O)[C@H](CCCNC(=N)N)NC(=O)[C@H](CCCCNC(=O)COCCOCCNC(=O)COCCOCCNC(=O)CC[C@H](NC(=O)CCCCCCCCCCCCCCCCCCC(=O)O)C(=O)O)NC(=O)[C@@H](NC(=O)[C@H](CC(=O)O)NC(=O)[C@H](CC(C)C)NC(=O)[C@](C)(Cc1ccccc1)NC(=O)[C@H](CCCCN)NC(=O)[C@H](CO)NC(=O)[C@@H](NC(=O)[C@H](CC(=O)O)NC(=O)[C@H](CO)NC(=O)[C@@H](NC(=O)[C@H](Cc1ccccc1)NC(=O)[C@@H](NC(=O)CNC(=O)[C@H](CCC(N)=O)NC(=O)C(C)(C)NC(=O)[C@@H](N)Cc1c[nH]cn1)[C@@H](C)O)[C@@H](C)O)C(C)C)[C@@H](C)O)C(C)C)C(=O)N[C@@H](CC(C)C)C(=O)N[C@@H](CCC(=O)O)C(=O)NC(C)(C)C(=O)N[C@@H](CCCCN)C(N)=O
hGLP-1R EC50 (pM) [1]: 34.2 pM
hGluc-R EC50 (pM) [2]: 207 pM

B4: Peptide 482 (peptide)
peptide: H[Aib]QGTFTSDVSK[αMeF]LESK([AEEA-AEEA-γGlu-C18 diacid])RAQDFVQWLL[Aib]E-OH
modifications: N-terminus assumed
SMILES: CC(C)C[C@H](NC(=O)[C@H](Cc1c[nH]c2ccccc12)NC(=O)[C@H](CCC(N)=O)NC(=O)[C@@H](NC(=O)[C@H](Cc1ccccc1)NC(=O)[C@H](CC(=O)O)NC(=O)[C@H](CCC(N)=O)NC(=O)[C@H](C)NC(=O)[C@H](CCCNC(=N)N)NC(=O)[C@H](CCCCNC(=O)COCCOCCNC(=O)COCCOCCNC(=O)CC[C@H](NC(=O)CCCCCCCCCCCCCCCCC(=O)O)C(=O)O)NC(=O)[C@H](CO)NC(=O)[C@H](CCC(=O)O)NC(=O)[C@H](CC(C)C)NC(=O)[C@](C)(Cc1ccccc1)NC(=O)[C@H](CCCCN)NC(=O)[C@H](CO)NC(=O)[C@@H](NC(=O)[C@H](CC(=O)O)NC(=O)[C@H](CO)NC(=O)[C@@H](NC(=O)[C@H](Cc1ccccc1)NC(=O)[C@@H](NC(=O)CNC(=O)[C@H](CCC(N)=O)NC(=O)C(C)(C)NC(=O)[C@@H](N)Cc1c[nH]cn1)[C@@H](C)O)[C@@H](C)O)C(C)C)C(C)C)C(=O)N[C@@H](CC(C)C)C(=O)NC(C)(C)C(=O)N[C@@H](CCC(=O)O)C(=O)O
hGLP-1R EC50 (pM) [1]: 190 pM
hGluc-R EC50 (pM) [2]: 691 pM

B6: Peptide 480 (peptide)
peptide: H[Aib]QGTFTSDVSK[αMeF]LDTK([AEEA-AEEA-γGlu-C18 diacid])RARDFVQWLLE[Aib]K-NH2
modifications: N-terminus assumed
SMILES: CC(C)C[C@H](NC(=O)[C@H](Cc1c[nH]c2ccccc12)NC(=O)[C@H](CCC(N)=O)NC(=O)[C@@H](NC(=O)[C@H](Cc1ccccc1)NC(=O)[C@H](CC(=O)O)NC(=O)[C@H](CCCNC(=N)N)NC(=O)[C@H](C)NC(=O)[C@H](CCCNC(=N)N)NC(=O)[C@H](CCCCNC(=O)COCCOCCNC(=O)COCCOCCNC(=O)CC[C@H](NC(=O)CCCCCCCCCCCCCCCCC(=O)O)C(=O)O)NC(=O)[C@@H](NC(=O)[C@H](CC(=O)O)NC(=O)[C@H](CC(C)C)NC(=O)[C@](C)(Cc1ccccc1)NC(=O)[C@H](CCCCN)NC(=O)[C@H](CO)NC(=O)[C@@H](NC(=O)[C@H](CC(=O)O)NC(=O)[C@H](CO)NC(=O)[C@@H](NC(=O)[C@H](Cc1ccccc1)NC(=O)[C@@H](NC(=O)CNC(=O)[C@H](CCC(N)=O)NC(=O)C(C)(C)NC(=O)[C@@H](N)Cc1c[nH]cn1)[C@@H](C)O)[C@@H](C)O)C(C)C)[C@@H](C)O)C(C)C)C(=O)N[C@@H](CC(C)C)C(=O)N[C@@H](CCC(=O)O)C(=O)NC(C)(C)C(=O)N[C@@H](CCCCN)C(N)=O
hGLP-1R EC50 (pM) [1]: 12.6 pM
hGluc-R EC50 (pM) [2]: 136 pM

B7: Peptide 477 (peptide)
peptide: H[Aib]QGTFTSDVSK[αMeF]LDTK([AEEA-AEEA-γGlu-C20 diacid])RAQDFVRWLLA[Aib]G-NH2
modifications: N-terminus assumed
SMILES: CC(C)C[C@H](NC(=O)[C@H](CC(C)C)NC(=O)[C@H](Cc1c[nH]c2ccccc12)NC(=O)[C@H](CCCNC(=N)N)NC(=O)[C@@H](NC(=O)[C@H](Cc1ccccc1)NC(=O)[C@H](CC(=O)O)NC(=O)[C@H](CCC(N)=O)NC(=O)[C@H](C)NC(=O)[C@H](CCCNC(=N)N)NC(=O)[C@H](CCCCNC(=O)COCCOCCNC(=O)COCCOCCNC(=O)CC[C@H](NC(=O)CCCCCCCCCCCCCCCCCCC(=O)O)C(=O)O)NC(=O)[C@@H](NC(=O)[C@H](CC(=O)O)NC(=O)[C@H](CC(C)C)NC(=O)[C@](C)(Cc1ccccc1)NC(=O)[C@H](CCCCN)NC(=O)[C@H](CO)NC(=O)[C@@H](NC(=O)[C@H](CC(=O)O)NC(=O)[C@H](CO)NC(=O)[C@@H](NC(=O)[C@H](Cc1ccccc1)NC(=O)[C@@H](NC(=O)CNC(=O)[C@H](CCC(N)=O)NC(=O)C(C)(C)NC(=O)[C@@H](N)Cc1c[nH]cn1)[C@@H](C)O)[C@@H](C)O)C(C)C)[C@@H](C)O)C(C)C)C(=O)N[C@@H](C)C(=O)NC(C)(C)C(=O)NCC(N)=O
hGLP-1R EC50 (pM) [1]: 54.1 pM
hGluc-R EC50 (pM) [2]: 117 pM

Results, then the binder that gave them:

hGLP-1R EC50 (pM) [1]: 52.2 pM
hGluc-R EC50 (pM) [2]: 350 pM
B3: Peptide 481 (peptide)
peptide: H[Aib]QGTFTSDVSK[αMeF]LDTK([AEEA-AEEA-γGlu-C20 diacid])RARDFVQWLLE[Aib]K-NH2
modifications: N-terminus assumed
SMILES: CC(C)C[C@H](NC(=O)[C@H](Cc1c[nH]c2ccccc12)NC(=O)[C@H](CCC(N)=O)NC(=O)[C@@H](NC(=O)[C@H](Cc1ccccc1)NC(=O)[C@H](CC(=O)O)NC(=O)[C@H](CCCNC(=N)N)NC(=O)[C@H](C)NC(=O)[C@H](CCCNC(=N)N)NC(=O)[C@H](CCCCNC(=O)COCCOCCNC(=O)COCCOCCNC(=O)CC[C@H](NC(=O)CCCCCCCCCCCCCCCCCCC(=O)O)C(=O)O)NC(=O)[C@@H](NC(=O)[C@H](CC(=O)O)NC(=O)[C@H](CC(C)C)NC(=O)[C@](C)(Cc1ccccc1)NC(=O)[C@H](CCCCN)NC(=O)[C@H](CO)NC(=O)[C@@H](NC(=O)[C@H](CC(=O)O)NC(=O)[C@H](CO)NC(=O)[C@@H](NC(=O)[C@H](Cc1ccccc1)NC(=O)[C@@H](NC(=O)CNC(=O)[C@H](CCC(N)=O)NC(=O)C(C)(C)NC(=O)[C@@H](N)Cc1c[nH]cn1)[C@@H](C)O)[C@@H](C)O)C(C)C)[C@@H](C)O)C(C)C)C(=O)N[C@@H](CC(C)C)C(=O)N[C@@H](CCC(=O)O)C(=O)NC(C)(C)C(=O)N[C@@H](CCCCN)C(N)=O

hGLP-1R EC50 (pM) [1]: 9.18 pM
hGluc-R EC50 (pM) [2]: 190 pM
B5: Peptide 478 (peptide)
peptide: H[Aib]QGTFTSDVSK[αMeF]LDTK([AEEA-AEEA-γGlu-C18 diacid])RAQDFVRWLLE[Aib]K-NH2
modifications: N-terminus assumed
SMILES: CC(C)C[C@H](NC(=O)[C@H](Cc1c[nH]c2ccccc12)NC(=O)[C@H](CCCNC(=N)N)NC(=O)[C@@H](NC(=O)[C@H](Cc1ccccc1)NC(=O)[C@H](CC(=O)O)NC(=O)[C@H](CCC(N)=O)NC(=O)[C@H](C)NC(=O)[C@H](CCCNC(=N)N)NC(=O)[C@H](CCCCNC(=O)COCCOCCNC(=O)COCCOCCNC(=O)CC[C@H](NC(=O)CCCCCCCCCCCCCCCCC(=O)O)C(=O)O)NC(=O)[C@@H](NC(=O)[C@H](CC(=O)O)NC(=O)[C@H](CC(C)C)NC(=O)[C@](C)(Cc1ccccc1)NC(=O)[C@H](CCCCN)NC(=O)[C@H](CO)NC(=O)[C@@H](NC(=O)[C@H](CC(=O)O)NC(=O)[C@H](CO)NC(=O)[C@@H](NC(=O)[C@H](Cc1ccccc1)NC(=O)[C@@H](NC(=O)CNC(=O)[C@H](CCC(N)=O)NC(=O)C(C)(C)NC(=O)[C@@H](N)Cc1c[nH]cn1)[C@@H](C)O)[C@@H](C)O)C(C)C)[C@@H](C)O)C(C)C)C(=O)N[C@@H](CC(C)C)C(=O)N[C@@H](CCC(=O)O)C(=O)NC(C)(C)C(=O)N[C@@H](CCCCN)C(N)=O

hGLP-1R EC50 (pM) [1]: 178 pM
hGluc-R EC50 (pM) [2]: 169 pM
Binder: H[Aib]QGTFTSDVSK[αMeF]LDTK([AEEA-AEEA-γGlu-C18 diacid])RAQDFVQWLL[Aib]E-OH [Peptide 483]

Reference: US20230357348A1 (AstraZeneca / MedImmune, published 2023)
